Results taken from patent US20200016266A1 (INIS BIOTECH, published 2020).
Substitutions are numbered along the chain they refer to. Read-outs that look alike come from different tables or passages of the source.

T1: QPGSVAEVCITFD
T1 construct: 13-mer of the Gal1 peptide array, axis label
T1 peptide: QPGSVAEVCITFD

T2: NLGKDSN
T2 construct: 7-mer of the Gal1 peptide array, axis label
T2 peptide: NLGKDSN

T3: PGECLRV
T3 construct: 7-mer of the Gal1 peptide array, axis label
T3 peptide: PGECLRV

T4: LPDGYEFKFPNRL
T4 construct: 13-mer of the Gal1 peptide array, axis label
T4 peptide: LPDGYEFKFPNRL

T5: TFDQANLTVKLPD
T5 construct: 13-mer of the Gal1 peptide array, axis label
T5 peptide: TFDQANLTVKLPD

T6: GLVASNL
T6 construct: 7-mer of the Gal1 peptide array, axis label
T6 peptide: GLVASNL

T7: VAPDAKS
T7 construct: 7-mer of the Gal1 peptide array, axis label
T7 peptide: VAPDAKS

B1: anti-Gal1 Clone 21, fully human monoclonal antibody (antibody, V domains shown)
VH: EVQLLESGGGLVQPGGSLRLSCAASGFTFSSYAMSWVRQAPGKGLEWVSEIGRVGVNTLYADSVKGRFTISRDNSKNTLYLQMNSLRAEDTAVYYCAKKATQFDYWGQGTLVTVSS
VL: DIQMTQSPSSLSASVGDRVTITCRASQSISSYLNWYQQKPGKAPKLLIYRASRLQSGVPSRFSGSGSGTDFTLTISSLQPEDFATYYCQQTIGPPDTFGQGTKVEIKR
notes: also called MAb21; Human Ab 21
B2: anti-Gal1 Clone 42, fully human monoclonal antibody (antibody, V domains shown)
VH: EVQLLESGGGLVQPGGSLRLSCAASGFTFSSYAMSWVRQAPGKGLEWVSGISGSGDYTSYADSVKGRFTISRDNSKNTLYLQMNSLRAEDTAVYYCAKGYGAFDYWGQGTLVTVSS
VL: B1 VL with R50G, R53W, T91S, I92A, G93N, P94Y, D96S
notes: also called MAb42; Human Ab 42

How the values were obtained:
[1] = molecular target: T8, Galectin-1 (human recombinant Gal1) (human, UniProt P09382 2-135, DyLight 594 label in the FRET assay only); test: SPR, BIAEvaluation 3.0, 1:1 kinetic model
T8 construct: Recombinant Gal1 made in-house; also called rhGal1; 594-Gal1
T8 sequence (P09382 2-135 limits assumed): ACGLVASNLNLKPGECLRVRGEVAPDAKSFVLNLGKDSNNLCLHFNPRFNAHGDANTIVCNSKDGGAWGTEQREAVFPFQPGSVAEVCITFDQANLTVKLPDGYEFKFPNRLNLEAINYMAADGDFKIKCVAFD
Method: By using the BIAEvaluation 3.0 software in a kinetics model of interaction adjustment 1:1, kinetic parameters, constants of dissociation (Kd) and affinity (Ka) were calculated.

QPGSVAEVCITFD [2] = molecular target: T1, QPGSVAEVCITFD; test: PEPperMAP conformational epitope mapping peptide array, fluorescence intensity [a.u.]
NLGKDSN [3] = molecular target: T2, NLGKDSN; test: as above
PGECLRV [4] = molecular target: T3, PGECLRV; test: as above
LPDGYEFKFPNRL [5] = molecular target: T4, LPDGYEFKFPNRL; test: as above
TFDQANLTVKLPD [6] = molecular target: T5, TFDQANLTVKLPD; test: as above
GLVASNL [7] = molecular target: T6, GLVASNL; test: as above
VAPDAKS [8] = molecular target: T7, VAPDAKS; test: as above
QPGSVAEVCITFD [9] = molecular target: T1, QPGSVAEVCITFD; test: as above
NLGKDSN [10] = molecular target: T2, NLGKDSN; test: as above
PGECLRV [11] = molecular target: T3, PGECLRV; test: as above
LPDGYEFKFPNRL [12] = molecular target: T4, LPDGYEFKFPNRL; test: as above
TFDQANLTVKLPD [13] = molecular target: T5, TFDQANLTVKLPD; test: as above
GLVASNL [14] = molecular target: T6, GLVASNL; test: as above
VAPDAKS [15] = molecular target: T7, VAPDAKS; test: as above

Row | Binder | Ka [1] [M⁻¹] | Kd [1] [nM] | binding result (QPGSVAEVCITFD [2]) | binding result (NLGKDSN [3]) | binding result (PGECLRV [4]) | binding result (LPDGYEFKFPNRL [5]) | binding result (TFDQANLTVKLPD [6]) | binding result (GLVASNL [7]) | binding result (VAPDAKS [8]) | binding result (QPGSVAEVCITFD [9]) | binding result (NLGKDSN [10]) | binding result (PGECLRV [11]) | binding result (LPDGYEFKFPNRL [12]) | binding result (TFDQANLTVKLPD [13]) | binding result (GLVASNL [14]) | binding result (VAPDAKS [15])
1 | B1 | 649000 | 1540 | no binding (tested: 10 µg/ml) | no binding (tested: 10 µg/ml) | no binding (tested: 10 µg/ml) | no binding (tested: 10 µg/ml) | no binding (tested: 10 µg/ml) | no binding (tested: 10 µg/ml) | no binding (tested: 10 µg/ml) | – | – | – | – | – | – | –
2 | B2 | 7.63e+06 | 131 | – | – | – | – | – | – | – | no binding (tested: 10 µg/ml) | no binding (tested: 10 µg/ml) | no binding (tested: 10 µg/ml) | no binding (tested: 10 µg/ml) | no binding (tested: 10 µg/ml) | no binding (tested: 10 µg/ml) | no binding (tested: 10 µg/ml)
